Laboratory results published in the DeepSol protein solubility set.

Assay: soluble on expression in E. coli; label from the status in PepcDB or PDB records

Row | Sequence | soluble on expression in E. coli
1 | MSLSQYAEMSLVYDQLTQDQPYEKWFEIVKNHCKDESNILDIGCGTGSLTVQLEALGNVTGMDLSVDMLTVAAQKSANVNWLEGDMTSFDLQQQFDIITIFCDSLNYLQDETAVIETFINVYHHLTDSGVFIFDVHTVYKMMTLFNNQSYIDDKGDIFLAWDAVQGDLPLSVYHDMTFFIRHEDETYSRFDESHFQRTFDEKTYLSWLAQVGFKHVETFTDFNIDEHNEDTERLFFIAKKEGHHHHHH | soluble
2 | MDDHGRTPSTNQPILYVLDTNVLIHDPNALLNFEEHHVAIPMTVLEELDKLKAGKHSVAAECRQAIRLIDKTLGEASPEEVEKGVPIDRGTGVFKGFLSILMSKREEPNSLLPEHLNDNIIINQLIDLHARNKDLSVVLVTKDINMRLKARACGIDAEDYSTDQLVDDVSLLSRGYHDMTGSFWDRVNKVDTRQERGRTWHRVQLNEMLPAVHINEFIVDEQGFVGWIKGVKNDELLILDMHQEPLLHQEAWGLKPRDIYQGLALFALLDPDIHLVNLSGPAGSGKTILALAAAIEQTMVTKRYRRIIATRSVQGLDQEIGFLPGTEAEKMEPWLGAITDNLEALHMDDENTHGSVDYILSKVPLQFKSLNYIRGRSFQQSLILIDECQNLTPHQMKTIITRAGAGSKVVCLGNLAQIDTPYLSATSSGLTYLTERFKDFPNGVHLTLQGVPRSILAEYAESHL | soluble
3 | MLVKGNEILLKAHKEGYGVGAFNFVNFEMLNAIFEAGNEENSPLFIQASEGAIKYMGIDMAVGMVKIMCERYPHIPVALHLDHGTTFESCEKAVKAGFTSVMIDASHHAFEENLELTSKVVKMAHNAGVSVEAELGRLMGIEDNISVDEKDAVLVNPKEAEQFVKESQVDYLAPAIGTSHGAFKFKGEPKLDFERLQEVKRLTNIPLVLHGASAIPDNVRKSYLDAGGDLKGSKGVPFEFLQESVKGGINKVNTDTDLRIAFIAEVRKVANEDKSQFDLRKFFSPAQLALKNVVKERMKLLGSANKI | soluble
4 | MGSDKIHHHHHHMSTVIDSNIFNTLVSNTFYSCPLGGAIYDTEGNLIDLNKAMFAHFSLADKHDFIIEHLFNNIVLTDSLKSSLRKGDAIICEEPVTFKVEPIYTDEQGLSGYTLWLTQQGEKETDRENKLLMGQLNESRILMRQALEDGKLAAYSFSFDRFSTCDKRHCNRCFQFYGTTNTLLDKNRFICRALSSVRKPEDSLDFFYLFNKIRDEKLSSHNVTFHLRNQDGTYKMYEISGKSMDIDESGTPHVIIGSIIEKENDELAIADHQKSKDLSLLKSTFLANMTHEIRTPLNAIVGFSDMLGLEDDPEMREQYISMIKENNTALLELINDTLEMSRIESNTINWSYEDVNPLAIMHDVYEYASPRISKNVRLILDDSPNVSLHTDKHKLMLILKKLLSNALRYTEKGEIHFGYQSLYPVSVQFYVSDTGNGIPKDKLGHIFERFVQLNEFQPGTGLGLSICKGLVTAMGGTIWVNSEEGKGSTFSFKLPITPPDTIS | not soluble
5 | KTVPSGQAGQGFAEKGPWKKLGLTYTQKTEIQRIHHNTRAEMDKVLTTEQKEQLKAAMQERQTQRSQGEGRGKWKKDIFTSLNLTDAQKSQIQEIRELSRKQMEAVLTPAQRQQLQQMEQNWKSRRQQGNSN | not soluble
6 | MLGLPPELGLRTYSARLLGSNPKLVLHGGGNTSVKLNINDLFGNPVQVMCIKGSGQDLATITASGHPAVRLAPLQQLKVLDHLSDEDMVNILRTNLLDCRAPTPSVEALLHAFVDRPVIDHTHAVAAMVIADQPDGDRLCRYIYGERVLWIPYVMSGFALSLAVERAFRAYPDAEGMLLGKHGLCTFGESAKASYERMITFVTLAENFIESRRAIYSPLEHHHHHH | not soluble
7 | MKIGIGSDHGGYNLKREIADFLKKRGYEVIDFGTHGNESVDYPDFGLKVAEAVKSGECDRGIVICGTGLGISIAANKVPGIRAAVCTNSYMARMSREHNDANILALGERVVGLDLALDIVDTWLKAEFQGGRHATRVGKIGEIEKKYSK | soluble
8 | GPGSMIFFFTLNLHDRSSLDLRVEFLFSCSDSSDSVAQHLRAIGMRGQLVQKGAATLYAGPKIASYTDACEAPVAMWEGAIPLKHERVLNGGVATRVVKKTYSHPPEIHPTNLSFNDIDSMYCLGNDELIKYFPEGVGGKMMQLMPPGHPRGFLYRKQSHLLNCFIDKLPFWQSKEKALRSLTNGRPGFIMDGPTGCGKSALLCQAVHYARSRDIITLYIANAKAWTHGEWCWPSTILPGFFDAPDAAREFLRTVAEANGSLLQAWELRVTPQDLPLEQGEKQPRSLYDLCEWGHRAVAPASIDRQSVCIKFFFDEIRAEKTKPIIIAVDGWNLFSHETHFRYPHPDFLRTLTTLNDGLTDVDLYPQELPRIPASRLSFVRGLNKLILSKQDPNKFFITCTTRDFKPFDGVSGFADVENDRFKNSLDEYAPYDPEKDSFFHPMQVENFTEYEYRAFLRFAINSGELAGLGWGPMWHYSSDFERKLYKIDFMSDRNPQRVVDHYHQELVWRYEYKRTRQKQYLLARRKMWQGAEVSNPLRNGK | not soluble
9 | MGSDKIHHHHHHMKWLLFPARIVARTRPNLFSLYRRSVSQYLRPRTIQNLQSMAQTPELKTKLFKPLVWIDCEMTGLDHVNDRIIEICCIITDGHLAPVKAADGQGDSHYESVIHYGPEVMNKMNEWCIEHHGNSGLTAKVLASEKTLAQVEDELLEYIQRYIPDKNVGVLAGNSVHMDRLFMVREFPKVIDHLFYRIVDVSSIMEVARRHNPALQARNPKKEAAHTAYSDIKESIAQLQWYMDNYLKPPQETESVESIGSEQPESPSSSTSSLKRQRTDF | not soluble
10 | HQCQGCGSTQLISVGVGTEQLETQLTNLFPEYKTVRIDRDSTRRKGSLEDYLEAIKNNEYQILIGTQMLAKGHHFPNVTLVGLIDVDSSLFSSDFRAPERLAQLFIQVAGRAGRASKPGEVILQTHHPE | not soluble
11 | MPWGWIEALLGHACPGCGGPLDLPALCGRCRAGLEAFSTGEMVYLGHYARVGPLVRALKYGRREALARALAEPLARAVAARGWRLQGVTAVPTLPHRLALRGYNPPEVLARALAKALGVPYRPVLFRRRYTPGQPTRGFKERRFLPGDLFGARVRVEGAWLLVDDVLTSGATFLRARGALLEAGAAHVYGAFLAVRDPRALGPYR | soluble
12 | MTVTTKLIDYSDEEGNNFEGVLYIPKNVKQSKVPAVLIFPAFRGITHFEKDKGQQIAELGFVAFVADVYGKGVRPTERADAFATMGPLVSNRVEKLKPRLFAAVNTLKTFSEVDTSKIAAIGYCFGGLCVLDLARYNAGLKGVVSYHGTLKPIPDIALDPIVGTTVYVHHGDADFHIAKDQVDGFHEEMRTRQADFVFVSHANAVHAFTEPEADSFNAPGIGYNEKAAKRSWNATLDLFKEIF | not soluble
13 | MGSDKIHHHHHHMKIKIGKVEKRLNQIIEEEGAVYLTLLDPEEENIEEIAENVKDYADAIMVGGSIGIVNLDETVKKIKKITKLPIILFPGNVDGLSRYADAVFYMSLMNSANTYWVVTAPTLGAITILKYNLEPIPMAYLCIEPAKKTAVGYVGEIREIPQNKPKITAMYCLSAKFFGMRWAYLEAGSGASYPVNNETIALSKKLSGINIIVGGGIRKPEIAYEKVLAGADAIVTGNLLEENPKAVEMMYDAIKKAGKEKLKNK | not soluble
14 | MGHHHHHHSHMAQKPGTMAQMRNGTSGGDKRQYETEVIILNQCRKLNGQIFIQRDYSKGLDVQFEAEYPARLTEKVPRDVWENTIVRINRIFADAEAITPQTIFETVLGCFTCYASYAITKSTYRRKLDELQEFLNRENREIYHHVGFHIRNPMERGLRVLEISLLSRQGETPRDDVDSPGGAIRTI | not soluble
15 | MSMFGKVAADVLGLSDIGSVIQPKDYDKVDADDYVMHEDGEKIYFLIKSKSDEYCFTNRALIHLDGTSAASKKRTLRRYDYYKHPISDVSLETAGTVDLDAEIKFKIGPHSYSIDVHKKHIEELKDLYKSLLAIAEICHENEMKFHYAERSLELATKVFANMRGDGANVSADFQAVNEYAFRWLTEAKKNYTVKDFGFVFDKYIQQ | not soluble
16 | MSLLKQRFVLDTTALTDLQTREVMGYASLCEGMKAILDLIADARLHFGISCYVPYPSVYKEMYEFASRNGCDREVVAKIDTWLVKKSPDRYRVSVTSQIFHEYVAYMRERINRGMGVAEDAIWEAATECLFMENPQNKKKEYKEEVEREVIGGIIGKFRNKYRAALRYGILDSAPDIDVLILAKELDAAVIASDYGIEKWAEQLGVRFVPANVFPMMIQEYLKHLPENENEPEYENRDKSKEGSSGEIEFIEGHHHHHH | soluble
17 | MILVTGATGVVGRQVAHTLARSGRVRLLVRDPARLTVEGPGVEVATGAYEDHASLLRALKGVEAAFLVTVDPGGQEDGRFLRAAVAADVRHVVKLSSYAAGEDDADDLITRWQRKCEETLRSSGLDWTLLRPRAFMSNTLSWADSIRREGTVRALYPGSENACVDPRDIAEVAVTALTSPGHEGRVYPLTGPEAVSAEQQTRHLAAVLGRPLVCRELTPQQAAARWARRYPPKVVHALVLSAQRQLLGRKTTTDPTFARVTGHPPRSYRQWATDHRNAFA | not soluble
18 | SSKKYKLSEIHHLHPEYVRVSEHFKASMKNFKIEKIKKIENSELLDKFTWKKSQMKEEGKLLFYATSRAYVESICSNNFDSFLHETHENKYGKGIYFAKDAIYSHKNCPYDAKNVVMFVAQVLVGKFIEGNITYTSPPPQFDSCVDTRSNPSVFVIFQKDQVYPQYVIEYTED | soluble
19 | GSHMRLSDYFPESSISVIHSAKDWQEAIDFSMVSLLDKNYISENYIQAIKDSTINNGPYYILAPGVAMPHARPECGALKTGMSLTLLEQGVYFPGNDEPIKLLIGLSAADADSHIGAIQALSELLCEEEILEQLLTASSEKQLADIISRG | soluble
20 | MERSALVTGGASGLGRAAALALKARGYRVVVLDLRREGEDLIYVEGDVTREEDVRRAVARAQEEAPLFAVVSAAGVGLAEKILGKEGPHGLESFRRVLEVNLLGTFNVLRLAAWAMRENPPDAEGQRGVIVNTASVAAFEGQIGQAAYAASKGGVVALTLPAARELAGWGIRVVTVAPGLFDTPLLQGLPEKAKASLAAQVPFPPRLGRPEEYAALVLHILENPMLNGEVVRLDGALRMAPR | soluble
21 | NGFQKEMRTRILGMVPHATISAAQPLDDWQTVANAALRHREVVGAAPFAELQGMLSYKGNMLPVLVNGIDPQEERKVSIVGEHIVQGSLDDLKPGEFGIVLGEITARRFHVNVGDKLTLIVPEATSAPGGITPRMQRFTIVALFKVGAELDNSLALIDIADAGQLLRLQPGQVPSVRLELKDLYQSPQVAAKVVKELGQGFRSSDWTRTQGSLFNAMKMEKT | not soluble
22 | GSMIDKSAFVHPTAIVEEGASIGANAHIGPFCIVGPHVEIGEGTVLKSHVVVNGHTKIGRDNEIYQFASIGEVNQDLKYAGEPTRVEIGDRNRIRESVTIHRGTVQGGGLTKVGSDNLLMINAHIAHDCTVGNRCILANNATLAGHVSVDDFAIIGGMTAVHQFCIIGAHVMVGGCSGVAQDVPPYVIAQGNHATPFGVNIEGLKRRGFSREAITAIRNAYKLIYRSGKTLDEVKPEIAELAETYPEVKAFTDFFARSTRGLIR | soluble
23 | MLGRALRPGWLGITRTVVKKPSCGSYFNRTFQTAINTTMPPMQEGMLSTMMMMTATATRITGTVSEPLNGSNIVMQLDSVMRKRKKKMKKHKLRKRRKREKAERRKLSQGR | soluble
